From publication PMC549407

Biological target: HIV-1 integrase (IN), recombinant, from the San Francisco isolate SF2 (HIV-1 (San Francisco isolate SF2))
Assay: cross-linking

HIV-1 integrase (IN), recombinant, from the San Francisco isolate SF2 (enzyme)
stoichiometry N: 2
